The results in this text go back to the nanobody polyreactivity screen of Harvey et al. (2022).

This series is described as follows: yeast display, Sf9 membrane polyspecificity reagent, FACS + sequencing; frameworks hold sequencing errors. An outline of the steps: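 Using colony PCR, genes from sorted yeast display clones were amplified, then sequenced on MiSeq at 2 × 250 and filtered by CDR length. The clones had been stained with 10% biotinylated, detergent-solubilized Sf9 membrane reagent for 1 hour at 4 °C and sorted by FACS into low and high (top ~1%) gates on anti-HA and streptavidin fluorescence. Polyreactivity labels come from the gate of origin.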
As to “QVQLVESGGGIVQAGGSLRLSCAASGSISFLYTMGWYRQAPGKERELVAAITGSTASTYYADSVKGRFTISRDNAKNTVYLQMNSLKPEDTAVYYCAAYWYAEGYWVSRDYWGQGTQVTVSS”, the “polyreactivity (PSR sort gate)” value is recorded as “low polyreactivity”.

In the case of “QVQLVESGGGIVQAGGSLRLSCAASGSSFQTNAMGWYRLAPGKERELVATINRSGDSTYYADSVKGRFTISRDNAKNTVYLQMNSLKPEDTAVYYCNKDWHSQDFSAYNSYDYWGQGTQVTVSS”, the “polyreactivity (PSR sort gate)” value is listed as “low polyreactivity”. Regarding “QVQLVESGGGIVQAGGSLRLSCAASGSSINLYAMGWYRQAPGKERELVAAINDDAGSTYYADSVKGRFTISRDNAKNTVYLQMNSLKPEDTAVYYCNAGSRSTEYDYWGQGTQVTVSS”, the “polyreactivity (PSR sort gate)” value is recorded as “low polyreactivity”.

For the sequence “QVQLVESGGGIVQAGGSLRLSCAASGSTFATYTMGWYRQAPGKERELVAAISSRGGSTYYADSVKGRFTISRDNAKNTVYLQMNSLKPEDTAVYYCNARRSTDPARYYWGQGSQVTVSS”, the “polyreactivity (PSR sort gate)” value was “high polyreactivity”. On to “QVQLVESGGGIVQAGGSLRLSCAASGSTFESNAMGSYRQAPGKERELVAAISRGGNTYYADSVKGRFTISRDNAKNTVYLQMNSLKPEDTAVYYCNVDRGNPVQPSEYWGQGTQVTVSS”, for which the “polyreactivity (PSR sort gate)” value is “low polyreactivity”. Under “QVQLVESGGGIVQAGGSLRLSCAASGSTFFIYAMGWYRQAPGKERELVAAISGSGGTTYYADSVKGRFTISRDNAKNTVYLQMNSLKPEDTAVYYCAARTFSAFWRGGYDYWGQGTQVTVSS” stands “low polyreactivity”; under “QVQLVESGGGIVQAGGSLRLSCAASGSTFGYYAMGWYRQAPGKERELVAAISWRGGSTYYADSVKGRFTISRDNAKNTVYLQMNSLKPEDTAVYYCAAQRGGPFPRVVDLYDYWGQGTQVTVSS”, “low polyreactivity”. Under “QVQLVESGGGIVQAGGSLRLSCAASGSTFLYYAMGWYRQAPGKERELVAAISSGGSTYYADSVKGRFTISRDNAKNTVYLQMNSLKPEDTAVYYCAAVRPGYVAYYYWGQGTQVTVSS” stands “high polyreactivity”. On to “QVQLVESGGGIVQAGGSLRLSCAASGSTFNWNAMGWYRQAPGKEREFVAAISKSGGTTYYADSVKGRFTISRDNAKNTVYLQMNSLKPEDTAVYYCAAVRRYHSYPDGGYWGQGTQVTVSS”, for which the “polyreactivity (PSR sort gate)” value was “high polyreactivity”. Under “QVQLVESGGGIVQAGGSLRLSCAASGSTFVSNAMGWYRQAPGKERELVAAITTGGSTYYADSVKGRFTISRDNAKNTVYLQMNSLKPEDTAVYYCAADSVLNWFWGQGTQVTVSS” stands “low polyreactivity”.

With “QVQLVESGGGIVQAGGSLRLSCAASGSTFVVYAMVWYRQEPGKERELVAAITSGGSTYYADSVKGRFTISRDNAKNTVFLQMNSLKPDDSAVYYCNKDDFSNELYWGQGTDVTVSS”, the “polyreactivity (PSR sort gate)” value is given as “low polyreactivity”. Under “QVQLVESGGGIVQAGGSLRLSCAASGSTLDYHDMGWYRQAPGKEREFVAAIRSNDGSTYYADSVKGRFTISLDNAKNTVYLQMNSLKPEDTAVYYCNKDVWDGYDWPEFDYWGQGTQVTVSS” stands “low polyreactivity”; under “QVQLVESGGGIVQAGGSLRLSCAASGSTSSSDDMGWYRQAPGQERELVADITSGGRTYYADSVKGRFTISRDNAKNTVYLQMNSLKPEATAVYYCAADTIEHYSLVTPTQGKFDSWGQGTQVTVSS”, “low polyreactivity”. With “QVQLVESGGGIVQAGGSLRLSCAASGYTISYYAMGCYRQAPGKERELVASISWRGGGTYYADSVKGRFTISRDNAKNTVYLQMNSLKAEDTAVYYCNIDYYATPYGYWGQGTQVTVSS”, the “polyreactivity (PSR sort gate)” value was “low polyreactivity”.

As for “QVQLVESGGGIVQAGGSLRLSCAATGFTFVYYAMGWYRQEPGKERELVAAISSRGGSTNYADSVKGRFTISRDNAKKTVYLQMNSLKPEDTAVYYCAARANTKKPYYYWGQGTQVTVSS”, the “polyreactivity (PSR sort gate)” value was “high polyreactivity”. “QVQLVESGGGIVQAGGSLRLSCADSGFISVTYAMGWYRPAPGKERELDAAITYSGGSTYYADSVKGRYTISRDNAKNTVYLQMNSLKPEDTAVYYCAKKRRVVVLSVQGDYWGQGTQVTVSS”: the “polyreactivity (PSR sort gate)” value is “low polyreactivity”.

Regarding “QVQLVESGGGIVQAGGSLRLSCPASGIIFYLNPMGWSRQAPGKERELVAAITRGGSTYYADSVKGRFTISRDNEKNTVYLQMNSLKPEDTAVYYWAAKHGPGYRRWYDYWGQGTQVTVSS”, the “polyreactivity (PSR sort gate)” value is recorded as “high polyreactivity”. “QVQLVESGGGIVQAGGSLRLSFAASGSTFNSNVMGWYRQAPGKERELVAAISRSGGNTYYADSVKGRFTISRDNAKNTVYLLMNSLKPEDTAVYYCNKAGRYPYDYWGQGTQVTVSS”: the “polyreactivity (PSR sort gate)” value was “high polyreactivity”. Regarding “QVQLVESGGGIVQAGGSLRLSSAASGRIFYRYAMGWYRQAPGKERELVASITRSGITHYADSVNGRFTISRDNAKNTVYLQMNSLKPEDTAVYYCNKRPWHRSSRPFYYWGQGTQVTVSS”, the “polyreactivity (PSR sort gate)” value was “high polyreactivity”.

As for “QVQLVESGGGIVQAGGSLRLTCAASGRILGSNSIAWYRHAPGKERELVAAITSTGSTDYADSVKGRFTISRDNAKKTVYLQMNSLKPEDTAVYYCAADTSPYQDDYWGQGTQVTVSS”, the “polyreactivity (PSR sort gate)” value is recorded as “low polyreactivity”. Under “QVQLVESGGGIVQAGGSLSLSCAASGFNFGIYAMGWYRQAPGKEREFVAAITGSAGSTYYADSVKGRFTISLDNAKNTVYLQMNSLKPEDTAVYYCAAVLRTHRYGGYNYWGQGTQVTVSS” stands “low polyreactivity”; under “QVQLVESGGGIVQAGVSLRLSCAASGSTFRDYAMGWSRPAPGKERELVAAISNSGGRTYYADSVKGRFTISRDNAKNTVYLQMYSLKPEDTAVYYCNAGRQTKWGQGTQVTVSS”, “high polyreactivity”; under “QVQLVESGGGIVQEGGSLRLSCAASGRIFGTNAMGWYRQAPGKERELVATITRGGGNTYYADSVKGRFTISRDNAKNTVYLQMKSLKPEDTAVYYCAAKFHRFAWYSHYDYWGQGTQVTVSS”, “low polyreactivity”. Under “QVQLVESGGGIVQEGGSLRLSCAASGSTFRDYAMGWYRQAPGKERELVAAISSRGATTYYADSVKGRFTISRDNAKNTVYLQMNSLKPEDTAVYYCNARQRRNPGGYGYWGQVTQVTVSS” stands “high polyreactivity”. Under “QVQLVESGGGIVQPGGSLRLSCAASGSIFGYNAIGWYRQAPGKERELVAAISTSSGSTYYADSVKGRFTISRDNAKNTVFLQMNSLKPEDTAVYYCAARDRPFGRYDYWGQATQVTVSS” stands “low polyreactivity”; under “QVQLVESGGGKVQAGGSLRLSCAASGFILSRNAMGWYRQAPGKERELVAAISRSGTRTYYADSVKGRFTISRDNEQNTVYLQMNSLKPEDTAVYYCARVSKRTWTGYYYWGQGTQVTVSS”, “high polyreactivity”.

As to “QVQLVESGGGKVQAGGSLRLSCAASGRIFSVYTMGWYSQAPGKERELVAAISSGASTNYADSVKGRFTISRDNAKNTVYLQMNSLKPEDTAVEYCNAQWYLRLGASKTWVDVDYWGQGTQVTVSS”, the “polyreactivity (PSR sort gate)” value was “low polyreactivity”. Under “QVQLVESGGGKVQAGGSLRLSCAPSGSIFFSYAMGWYRQAPGKERELVAAISGSGTSTYYADSVKGRFTISRDNAKNTVYLQMNSLKPEDTAVYYCPTDGGAAWGRYYWDYGYWGQGTQVTVSS” stands “low polyreactivity”; under “QVQLVESGGGKVQAGGSLSLSCAASGSTFVVNAMGWYRQAPGKERELVAAIDGSDGSTYYADSEKGRFTISRDNAKNTVYLQMNSLKPEDTAVYYCAAEVLGRPDVENDYWGQGTKVTVSS”, “low polyreactivity”; under “QVQLVESGGGLAQAGGSLRLSCAASGNILRINGMGWYRQAPGKERELVASITRSGSTYYADSVKGRFTISRDNAKNTVYLQMNSLKPEDTAVYYCAADSRRYGVRFDYWGQGTQVTVSS”, “low polyreactivity”. Regarding “QVQLVESGGGLAQAGGSLRLSCAASGSTFNSNAMGWSRQAPGKERELVAAISRSGGRTYYADSVKGRFTISRDIAKNTVYLQMNSLKPEDTAVYYCAAGCQYISRRGYDYWGQGTQVTVSS”, the “polyreactivity (PSR sort gate)” value is listed as “high polyreactivity”. As for “QVQLVESGGGLDLAGGSLRLSCAASGSTFWRYAMGWYCQAPGKERELVAAISYTGTSTYSADSVKGRFTISRDNAKNTVYLQMNSLKPEDTAVYYCAAVFVGLVTGYDYSWGQGTQVNVSS”, the “polyreactivity (PSR sort gate)” value is “low polyreactivity”. With “QVQLVESGGGLDQAAGSLRLSCAASGSIFDAYMRWYIQAPGKERELVAGITRSGGSTYYADSVKGRFTISRDNAKIKVYLQMNSLKPEDTAVDFCAADYSSDGDYWGLGTQVTVSS”, the “polyreactivity (PSR sort gate)” value is listed as “low polyreactivity”. Under “QVQLVESGGGLDQAGGCLRLSCAASGRIFKYNAMGWYRQAPGTERELVAAISWNGDSTYYADSVKGRFTISRDIAKYTVYLQMNRLKPEDTAVYYCAVTGDYDMEYWGQGTQVTVSS” stands “low polyreactivity”. Under “QVQLVESGGGLDQAGGRLRLSCAASGSIFSIYAMGRYRQAPGKERELVAAISSGGSTYADSVKGRFTISRDNAKNTVYLQMNSLKPEDTAVYYCAADRRGYRGYDYWGQGTQVTVSS” stands “low polyreactivity”; under “QVQLVESGGGLDQAGGRLRLSCPASGRIFQANAMGRYRQAPGKERELVAAITNRGGSTYADSVKGRFTISRDNAKNTVYLQMNSLKPEDTAVYYCAADVSRYVQRDNYWGQGTQVTVSS”, “low polyreactivity”. Under “QVQLVESGGGLDQAGGRLRLSSAASGTTFAVNAMGWYRQAPGKERELVAAITSGGSTKYADSVKGRFTISRDNAKYSVYFQMNSLKREDSAVYYIPDSKLWALGWKFYYWGQGTQVTVSS” stands “low polyreactivity”; under “QVQLVESGGGLDQAGGSHRLSCAASGFTFSGYAMGWYRQAPGTESELVAAMTRRGGSTYYADSVKGRFTISRDNAKNTVYLHLNSLKPEDTAVYYCAADSGYPWELDYWGQGTQVTVSS”, “low polyreactivity”; under “QVQLVESGGGLDQAGGSHRLSCAASGRTFPGNAMGWYRQAPGKERELVAAISWSGSRTYYADSLKGRFTISRDNAKNTVYLHMTRMKPEDTAVYYCNVVVKGAWEYYPYDYWGQGTEVTVSS”, “high polyreactivity”. For the sequence “QVQLVESGGGLDQAGGSLRISCAASGSTLLGNAMGWYRQAPGKERELVAAISTSGDSTNYADSVKGRFTISRDNAKNTVYLQMNSLKPEDTAVYYCNAGGYLISDVDRVGYWGQGTQVTVSS”, the “polyreactivity (PSR sort gate)” value was “low polyreactivity”.

For the sequence “QVQLVESGGGLDQAGGSLRLICAASGIIFASNAMGWYRQAPGKERELVATITGSVAGTYYADSVKGRFTISRDNAKPTVYLQMNSLKPEDTAVYDCAAKRGWNVAGYDYWGQRTQVTVSS”, the “polyreactivity (PSR sort gate)” value is “low polyreactivity”.
